# From patent US20260209362A1 (VIB VZW, published 2026)
# Legend:
# [1] = target: human IL-12Rβ2 expressed on cells (human) (UniProt Q99665)
# [2] = target: CD20 (human) (UniProt P11836)
# [3] = target: T1, biotinylated human recombinant IL-12Rβ2 (produced in-house) (human, UniProt Q99665 24-622, random biotinylated); test: BLI (Octet Red), periplasmic extract on biotinylated human IL-12Rβ2 on streptavidin tips
# T1 construct: Soluble recombinant protein used for panning, ELISA and BLI; also called hIL-12RB2; hIL12RB2
# T1 sequence: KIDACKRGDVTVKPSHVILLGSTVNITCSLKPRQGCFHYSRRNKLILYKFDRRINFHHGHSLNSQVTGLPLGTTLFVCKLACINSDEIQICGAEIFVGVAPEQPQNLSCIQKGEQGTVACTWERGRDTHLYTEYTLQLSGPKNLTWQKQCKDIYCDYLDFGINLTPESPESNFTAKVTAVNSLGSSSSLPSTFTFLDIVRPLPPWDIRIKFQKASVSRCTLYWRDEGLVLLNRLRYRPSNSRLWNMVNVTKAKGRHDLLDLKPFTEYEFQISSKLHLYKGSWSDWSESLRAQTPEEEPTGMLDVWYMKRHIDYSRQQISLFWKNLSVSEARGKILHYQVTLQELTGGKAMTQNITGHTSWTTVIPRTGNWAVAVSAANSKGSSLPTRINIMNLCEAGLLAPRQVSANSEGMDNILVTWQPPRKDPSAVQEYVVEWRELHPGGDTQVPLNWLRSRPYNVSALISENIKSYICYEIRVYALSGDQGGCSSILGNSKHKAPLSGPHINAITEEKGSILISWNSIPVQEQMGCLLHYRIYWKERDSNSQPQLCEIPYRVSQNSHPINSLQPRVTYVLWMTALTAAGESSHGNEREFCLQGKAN
# [4] = target: T2, biotinylated mouse recombinant IL-12Rβ2 (produced in-house) (mouse, UniProt P97378 24-637, random biotinylated); test: BLI (Octet Red), periplasmic extract on biotinylated mouse IL-12Rβ2 on streptavidin tips
# T2 construct: Soluble recombinant protein used for panning, ELISA and BLI; also called mIL-12RB2; mIL12RB2
# T2 sequence: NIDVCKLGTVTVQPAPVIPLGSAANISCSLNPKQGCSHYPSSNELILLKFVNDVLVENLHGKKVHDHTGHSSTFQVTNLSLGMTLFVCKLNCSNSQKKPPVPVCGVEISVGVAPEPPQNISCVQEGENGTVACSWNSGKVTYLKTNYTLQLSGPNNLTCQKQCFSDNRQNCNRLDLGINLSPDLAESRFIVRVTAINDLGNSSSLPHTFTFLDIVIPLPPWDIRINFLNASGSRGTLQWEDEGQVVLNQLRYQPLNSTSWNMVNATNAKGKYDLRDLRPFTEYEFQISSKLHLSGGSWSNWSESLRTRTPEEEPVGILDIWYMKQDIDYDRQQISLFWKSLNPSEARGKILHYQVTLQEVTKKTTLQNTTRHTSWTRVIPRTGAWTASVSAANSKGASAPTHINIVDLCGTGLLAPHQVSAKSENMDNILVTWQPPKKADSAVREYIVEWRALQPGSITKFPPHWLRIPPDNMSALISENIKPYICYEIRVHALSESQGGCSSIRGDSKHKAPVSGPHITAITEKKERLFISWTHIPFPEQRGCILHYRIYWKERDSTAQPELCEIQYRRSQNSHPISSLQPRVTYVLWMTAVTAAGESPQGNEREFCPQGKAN
# [5] = target: T1, biotinylated human recombinant IL-12Rβ2 …; test: ELISA, periplasmic extract on biotinylated human IL-12Rβ2; signal over streptavidin control well
# [6] = target: T2, biotinylated mouse recombinant IL-12Rβ2 …; test: ELISA, periplasmic extract on biotinylated mouse IL-12Rβ2; signal over streptavidin control well
# [7] = target: T3, human IL-12Rβ2 expressed on cells (human, UniProt Q99665 24-862); test: flow cytometry, periplasmic extract VHH-HA on HEK293T cells transiently expressing human IL-12Rβ2
# T3 construct: the cell lines are described by plasmid or cDNA number only; also called hIL-12RB2; HEK293T transiently transfected with human IL-12Rβ2
# T3 sequence: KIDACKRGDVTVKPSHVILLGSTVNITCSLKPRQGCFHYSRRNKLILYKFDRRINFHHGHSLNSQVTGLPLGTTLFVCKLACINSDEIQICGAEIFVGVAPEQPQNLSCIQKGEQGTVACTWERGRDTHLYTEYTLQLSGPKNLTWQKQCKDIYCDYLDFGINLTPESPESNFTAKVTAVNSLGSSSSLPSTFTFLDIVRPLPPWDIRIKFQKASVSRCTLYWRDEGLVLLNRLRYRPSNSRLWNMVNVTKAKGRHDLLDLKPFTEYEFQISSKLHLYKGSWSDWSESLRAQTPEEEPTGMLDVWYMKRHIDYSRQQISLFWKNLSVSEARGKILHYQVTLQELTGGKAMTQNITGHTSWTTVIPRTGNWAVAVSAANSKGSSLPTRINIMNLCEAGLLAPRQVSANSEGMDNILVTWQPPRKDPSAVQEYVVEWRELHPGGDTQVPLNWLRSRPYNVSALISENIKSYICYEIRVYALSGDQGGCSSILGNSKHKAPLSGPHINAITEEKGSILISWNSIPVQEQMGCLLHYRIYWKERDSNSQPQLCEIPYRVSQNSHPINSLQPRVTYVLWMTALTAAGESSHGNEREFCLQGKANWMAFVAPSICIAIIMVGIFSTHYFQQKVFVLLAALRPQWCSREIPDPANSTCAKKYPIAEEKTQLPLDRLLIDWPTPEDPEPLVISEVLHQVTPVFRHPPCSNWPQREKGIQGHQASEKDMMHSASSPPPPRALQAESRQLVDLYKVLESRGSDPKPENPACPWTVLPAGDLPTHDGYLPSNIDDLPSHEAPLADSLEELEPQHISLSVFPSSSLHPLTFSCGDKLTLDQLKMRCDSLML
# [8] = target: T4, mouse IL-12Rβ2 expressed on cells (mouse, UniProt P97378 24-874); test: flow cytometry, periplasmic extract VHH-HA on HEK293T cells transiently expressing mouse IL-12Rβ2
# T4 construct: the cell lines are described by plasmid or cDNA number only; also called mIL-12RB2; HEK293T transiently transfected with mouse IL-12Rβ2
# T4 sequence: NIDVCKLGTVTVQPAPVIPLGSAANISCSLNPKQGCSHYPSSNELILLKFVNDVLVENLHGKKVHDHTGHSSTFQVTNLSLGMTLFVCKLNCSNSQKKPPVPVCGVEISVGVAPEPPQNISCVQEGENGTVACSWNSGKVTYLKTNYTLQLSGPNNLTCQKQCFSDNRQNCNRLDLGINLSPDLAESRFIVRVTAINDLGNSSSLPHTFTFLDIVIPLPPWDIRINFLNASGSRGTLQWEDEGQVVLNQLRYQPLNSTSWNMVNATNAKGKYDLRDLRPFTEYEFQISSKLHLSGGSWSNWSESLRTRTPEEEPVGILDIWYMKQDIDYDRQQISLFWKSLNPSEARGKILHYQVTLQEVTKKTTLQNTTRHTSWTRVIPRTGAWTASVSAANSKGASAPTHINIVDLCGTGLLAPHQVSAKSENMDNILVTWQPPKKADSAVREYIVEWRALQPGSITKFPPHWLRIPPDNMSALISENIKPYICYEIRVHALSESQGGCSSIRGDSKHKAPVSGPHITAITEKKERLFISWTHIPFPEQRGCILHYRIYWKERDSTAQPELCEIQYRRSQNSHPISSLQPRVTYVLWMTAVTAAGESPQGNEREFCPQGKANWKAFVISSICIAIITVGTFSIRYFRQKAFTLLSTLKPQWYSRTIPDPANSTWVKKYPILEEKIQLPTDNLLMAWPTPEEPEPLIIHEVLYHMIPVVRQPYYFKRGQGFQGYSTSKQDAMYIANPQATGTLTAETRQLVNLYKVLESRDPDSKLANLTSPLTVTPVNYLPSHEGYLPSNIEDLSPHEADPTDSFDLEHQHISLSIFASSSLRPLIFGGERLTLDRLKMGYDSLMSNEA
# [9] = target: T1, biotinylated human recombinant IL-12Rβ2 …; test: BLI (Octet Red), periplasmic extract on biotinylated human IL-12Rβ2 on streptavidin tips, 1:1 model
# [10] = target: T2, biotinylated mouse recombinant IL-12Rβ2 …; test: BLI (Octet Red), periplasmic extract on biotinylated mouse IL-12Rβ2 on streptavidin tips, 1:1 model
# Chain of CD20 (human) (P11836 whole entry): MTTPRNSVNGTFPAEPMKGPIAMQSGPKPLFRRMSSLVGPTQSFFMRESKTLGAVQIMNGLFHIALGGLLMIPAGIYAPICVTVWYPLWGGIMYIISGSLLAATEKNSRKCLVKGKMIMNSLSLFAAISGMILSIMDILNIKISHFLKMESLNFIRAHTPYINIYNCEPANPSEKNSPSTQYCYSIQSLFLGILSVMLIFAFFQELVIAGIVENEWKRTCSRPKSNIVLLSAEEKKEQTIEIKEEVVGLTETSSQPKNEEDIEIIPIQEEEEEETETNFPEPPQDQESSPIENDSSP
molecule,measurement,setting,value
IgG1 (antibody),% Specific Cell Lysis at 0.00125 ug/mL,[1],47.5%
same,% Specific Cell Lysis at 0.025 ug/mL,[1],50.4%
same,% Specific Cell Lysis at 0.5 ug/mL,[1],48.7%
same,% Specific Cell Lysis at 10 ug/mL,[1],44.6%
Rituximab (antibody),% Specific Cell Lysis at 0.00125 ug/mL,[2],52.4%
same,% Specific Cell Lysis at 0.025 ug/mL,[2],64.7%
same,% Specific Cell Lysis at 0.5 ug/mL,[2],75.6%
same,% Specific Cell Lysis at 10 ug/mL,[2],77.5%
"anti-IL-12Rβ2 VHH clone 3CAHM11 (clone ID 21050) (VHH, Tested as periplasmic extract; not shown: C-terminal HA tag) VHH: QVQLQESGGGLVQAGGSLRLSCAASGRTFNNYAMAWFRQAPGKEREFIAAITRSDTTLYIDSVKGRFTISRDNAKNTVALQMNSLKPEDTAVYYCAAGMPYSYSDYPRDSKYDYWGRGTQVTVSS",Response,[3],1.4
same,Response,[4],1.03
same,hIL12RB2/control (ELISA),[5],3.04 ratio
same,mIL12RB2/control (ELISA),[6],38.8 ratio
same,% cells bound,[7],37.6%
same,dMFI,[7],684
same,% cells bound,[8],7.51%
same,dMFI,[8],194
same,koff,[9],0.00519 s⁻¹
same,koff,[10],0.00462 s⁻¹
